Measurements as given in paper PMC3734082.

Molecular target: clathrin triskelia (clathrin heavy chain, CHC) purified from rat liver (UniProt P11442)
Experiment: GST pull-down, CHC
Conditions: sites S558

Substance | binding against the reference (reference: wild-type CID treated with Aurora A) | binding against the reference (reference: wild type treated with Aurora A)
TACC3 clathrin interaction domain (CID), 522-577 (from UniProt Q9Y6A5) S558A CID treated with Aurora A | weaker | –
TACC3 (from UniProt Q9Y6A5) S558A treated with Aurora A | – | weaker
